Substrate in data set [1]: OC[C@H]1OC(O)[C@H](O)[C@@H](O)[C@@H]1O
The experiment in a line: cells, lysate or membranes. It counts as cell-based, human. The note with it: other: wild-type GLUT3 in hxt^0 cells.

Substrate in data set [2]: OC[C@H]1OC(O)[C@H](O)[C@@H](O)[C@@H]1O
The data set can be described thus: cells, lysate or membranes. The following applies: other: GLUT3S66Y in hxt^0 cells.

B1: GLUT3 (Homo sapiens) (protein)
chain: MGTQKVTPALIFAITVATIGSFQFGYNTGVINAPEKIIKEFINKTLTDKGNAPPSEVLLTSLWSLSVAIFSVGGMIGSFSVGLFVNRFGRRNSMLIVNLLAVTGGCFMGLCKVAKSVEMLILGRLVIGLFCGLCTGFVPMYIGEISPTALRGAFGTLNQLGIVVGILVAQIFGLEFILGSEELWPLLLGFTILPAILQSAALPFCPESPRFLLINRKEEENAKQILQRLWGTQDVSQDIQEMKDESARMSQEKQVTVLELFRVSSYRQPIIISIVLQLSQQLSGINAVFYYSTGIFKDAGVQEPIYATIGAGVVNTIFTVVSLFLVERAGRRTLHMIGLGGMAFCSTLMTVSLLLKDNYNGMSFVCIGAILVFVAFFEIGPGPIPWFIVAELFSQGPRPAAMAVAGCSNWTSNFLVGLLFPSAAHYLGAYVFIIFTGFLITFLAFTFFKVPETRGRTFEDITRAFEGQAHGADRSGKDGVMEMNSIEPAKETTTNV
notes: expressed in transfected cells; host or cells: Saccharomyces cerevisiae hxt0 strain EBY.S7 (fgy1)
As to B1, the Km in data set [1] worked out at 3110 ± 420 µM.

B2: GLUT3S66Y (Homo sapiens; S66Y) (protein)
chain: MGTQKVTPALIFAITVATIGSFQFGYNTGVINAPEKIIKEFINKTLTDKGNAPPSEVLLTSLWSLYVAIFSVGGMIGSFSVGLFVNRFGRRNSMLIVNLLAVTGGCFMGLCKVAKSVEMLILGRLVIGLFCGLCTGFVPMYIGEISPTALRGAFGTLNQLGIVVGILVAQIFGLEFILGSEELWPLLLGFTILPAILQSAALPFCPESPRFLLINRKEEENAKQILQRLWGTQDVSQDIQEMKDESARMSQEKQVTVLELFRVSSYRQPIIISIVLQLSQQLSGINAVFYYSTGIFKDAGVQEPIYATIGAGVVNTIFTVVSLFLVERAGRRTLHMIGLGGMAFCSTLMTVSLLLKDNYNGMSFVCIGAILVFVAFFEIGPGPIPWFIVAELFSQGPRPAAMAVAGCSNWTSNFLVGLLFPSAAHYLGAYVFIIFTGFLITFLAFTFFKVPETRGRTFEDITRAFEGQAHGADRSGKDGVMEMNSIEPAKETTTNV
Take B2: the Km in data set [2] turned out to be 1420 ± 170 µM.

A word on the Km: it is the concentration of substrate that gives half-maximal velocity.
